Measurements reported in article PMC6056499, “A systematic dissection of sequence elements determining β-Klotho and FGF interaction and signaling” (Scientific Reports, 2018).

Molecular target: human β-Klotho extracellular domain (aa1–992) fused with a 6 × His tag at the C-terminus, Q86Z14
Assay: solid-phase binding assay
Conditions: chain shown with the change;; parent: est. 1.0; read off a plot

Chain of human β-Klotho extracellular domain (aa1–992) fused with a 6 × His tag at the C-terminus, Q86Z14 (Q86Z14 53-992): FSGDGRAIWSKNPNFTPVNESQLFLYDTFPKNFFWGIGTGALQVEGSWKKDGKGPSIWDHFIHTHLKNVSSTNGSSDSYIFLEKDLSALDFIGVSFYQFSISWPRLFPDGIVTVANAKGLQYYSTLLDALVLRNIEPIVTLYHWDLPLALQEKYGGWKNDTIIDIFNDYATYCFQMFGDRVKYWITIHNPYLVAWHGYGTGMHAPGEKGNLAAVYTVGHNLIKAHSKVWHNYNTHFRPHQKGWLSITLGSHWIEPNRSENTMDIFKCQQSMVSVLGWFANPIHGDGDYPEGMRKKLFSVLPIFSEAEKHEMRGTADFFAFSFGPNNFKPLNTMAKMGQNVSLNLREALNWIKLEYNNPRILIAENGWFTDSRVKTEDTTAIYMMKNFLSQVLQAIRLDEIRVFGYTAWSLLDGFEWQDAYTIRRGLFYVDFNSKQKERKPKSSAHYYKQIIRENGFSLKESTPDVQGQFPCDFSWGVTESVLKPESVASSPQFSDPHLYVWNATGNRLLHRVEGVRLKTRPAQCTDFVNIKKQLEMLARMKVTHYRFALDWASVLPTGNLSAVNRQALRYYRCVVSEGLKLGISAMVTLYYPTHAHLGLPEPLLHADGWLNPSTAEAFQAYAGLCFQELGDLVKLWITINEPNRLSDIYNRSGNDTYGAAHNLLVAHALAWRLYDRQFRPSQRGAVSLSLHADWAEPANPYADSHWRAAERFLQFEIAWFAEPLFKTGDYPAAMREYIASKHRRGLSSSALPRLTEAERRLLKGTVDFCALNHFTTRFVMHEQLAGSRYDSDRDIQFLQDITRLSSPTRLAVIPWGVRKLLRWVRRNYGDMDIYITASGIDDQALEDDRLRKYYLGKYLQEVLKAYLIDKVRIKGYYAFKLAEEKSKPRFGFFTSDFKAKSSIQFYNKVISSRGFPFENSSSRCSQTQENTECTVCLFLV

| Binder | ratio to parent |
| --- | --- |
| mature human FGF21 polypeptide fused with the human Fc fragment at the N-terminus (Fc-FGF21), wild type, Q9NSA1 191S-A (protein) HPIPDSSPLLQFGGQVRQRYLYTDDAQQTEAHLEIREDGTVGGAADQSPESLLQLKALKPGVIQILGVKTSRFLCQRPDGALYGSLHFDPEACSFRELLLEDGYNVYQSEAHGLPLHLPGNKSPHRDPAPRGPARFLPLPGLPPALPEPPGILAPQPPDVGSADPLSMVGPSQGRSPSYAS | 0.6 |
| mature human FGF21 polypeptide fused with the human Fc fragment at the N-terminus (Fc-FGF21), wild type, Q9NSA1 206S-A (protein) HPIPDSSPLLQFGGQVRQRYLYTDDAQQTEAHLEIREDGTVGGAADQSPESLLQLKALKPGVIQILGVKTSRFLCQRPDGALYGSLHFDPEACSFRELLLEDGYNVYQSEAHGLPLHLPGNKSPHRDPAPRGPARFLPLPGLPPALPEPPGILAPQPPDVGSSDPLSMVGPSQGRSPAYAS | 120 |
| mature human FGF21 polypeptide fused with the human Fc fragment at the N-terminus (Fc-FGF21), wild type, Q9NSA1 207Y-R (protein) HPIPDSSPLLQFGGQVRQRYLYTDDAQQTEAHLEIREDGTVGGAADQSPESLLQLKALKPGVIQILGVKTSRFLCQRPDGALYGSLHFDPEACSFRELLLEDGYNVYQSEAHGLPLHLPGNKSPHRDPAPRGPARFLPLPGLPPALPEPPGILAPQPPDVGSSDPLSMVGPSQGRSPSRAS | 530 |
| mature human FGF21 polypeptide fused with the human Fc fragment at the N-terminus (Fc-FGF21), wild type, Q9NSA1 207Y-A (protein) HPIPDSSPLLQFGGQVRQRYLYTDDAQQTEAHLEIREDGTVGGAADQSPESLLQLKALKPGVIQILGVKTSRFLCQRPDGALYGSLHFDPEACSFRELLLEDGYNVYQSEAHGLPLHLPGNKSPHRDPAPRGPARFLPLPGLPPALPEPPGILAPQPPDVGSSDPLSMVGPSQGRSPSAAS | 180 |
| mature human FGF21 polypeptide fused with the human Fc fragment at the N-terminus (Fc-FGF21), wild type, Q9NSA1 206S-R (protein) HPIPDSSPLLQFGGQVRQRYLYTDDAQQTEAHLEIREDGTVGGAADQSPESLLQLKALKPGVIQILGVKTSRFLCQRPDGALYGSLHFDPEACSFRELLLEDGYNVYQSEAHGLPLHLPGNKSPHRDPAPRGPARFLPLPGLPPALPEPPGILAPQPPDVGSSDPLSMVGPSQGRSPRYAS | 170 |
| mature human FGF21 polypeptide fused with the human Fc fragment at the N-terminus (Fc-FGF21), wild type, Q9NSA1 204S-A (protein) HPIPDSSPLLQFGGQVRQRYLYTDDAQQTEAHLEIREDGTVGGAADQSPESLLQLKALKPGVIQILGVKTSRFLCQRPDGALYGSLHFDPEACSFRELLLEDGYNVYQSEAHGLPLHLPGNKSPHRDPAPRGPARFLPLPGLPPALPEPPGILAPQPPDVGSSDPLSMVGPSQGRAPSYAS | 120 |
| mature human FGF21 polypeptide fused with the human Fc fragment at the N-terminus (Fc-FGF21), wild type, Q9NSA1 191S-R (protein) HPIPDSSPLLQFGGQVRQRYLYTDDAQQTEAHLEIREDGTVGGAADQSPESLLQLKALKPGVIQILGVKTSRFLCQRPDGALYGSLHFDPEACSFRELLLEDGYNVYQSEAHGLPLHLPGNKSPHRDPAPRGPARFLPLPGLPPALPEPPGILAPQPPDVGSRDPLSMVGPSQGRSPSYAS | 350 |
| mature human FGF21 polypeptide fused with the human Fc fragment at the N-terminus (Fc-FGF21), wild type, Q9NSA1 204S-R (protein) HPIPDSSPLLQFGGQVRQRYLYTDDAQQTEAHLEIREDGTVGGAADQSPESLLQLKALKPGVIQILGVKTSRFLCQRPDGALYGSLHFDPEACSFRELLLEDGYNVYQSEAHGLPLHLPGNKSPHRDPAPRGPARFLPLPGLPPALPEPPGILAPQPPDVGSSDPLSMVGPSQGRRPSYAS | 250 |
